According to patent US20150232562A1 (Ablynx, published 2015):

What follows are binders tested against T1, Epidermal Growth Factor Receptor 2 (HER2) (human, UniProt P04626 23-1255) (assay: FMAT competition on SKBR3 cells, periplasmic extract).
T1 construct: whole, on cells; the cell line is named under assay; also called ErbB-2; ERBB2

Binder | % blocking of Herceptin binding
17E3 (VHH, C-term myc-His6 tag) VHH: EVQLVESGGGLVQAGGSLRLSCVASKMTFMRYTMGWYRQAPGKQRDLVASIDSSGGTNYADSVKGRFTISRDNAKNTVYLEMNSLTPEDTAVYYCNQGWKIVPTDRTGHGTQVTVSS | > 90%
118N121_A1_4_OK/1-127 (VHH, C-term myc-His6 tag) VHH: EVQLVESGGGFVQTGGSPRLSCAASGRSFSEYAAAWFRQSPGKERDLVAGIMWDGRSLFYADSVKGRFTISRDNAKNTLHLQMNSLKPEDTAVYYCAYHKTPYTTLELNRPHAFGSWGQGTQVTVSS | > 90%
2E2 (VHH, C-term myc-His6 tag) VHH: EVQLVESGGGLVQPGGSLRLSCVASGFSLDDYGMTWVRQAPGKGLEWVSSINWSGTHTDYADSVKGRFTISRDNAKNTLFLQMNSLTPEDTAVYYCNQGWKIIPTDRRGHGTQVTVSS | > 90%
2H3 (VHH, C-term myc-His6 tag) VHH: EVQLVESGGGLVQPGGSLRLSCVASGFSLDDYGMTWVRQAPGKGLEWVSSINWSGTHTDYADSVKGRFTISRDNAKNTLFLQMNSLTPEDTAVYYCNQGWKIIPTDRRGHGTQVTVSS | > 90%
15G8 (VHH, C-term myc-His6 tag) VHH: EVQLVESGGGLVQPGGSLKLSCVASGFSLDDYGMTWVRQAPGKGLEWVSSINWNGTHTDYAYSVKGRFTISRDNAKNTLFLQMNSLTPENTAVYYCNQGWKILPAERRGHGTQVTVSS | > 90%
27G8 (VHH, C-term myc-His6 tag) VHH: EVQLVESGGGLVQPGGSLRLSCVASGFSLDDYGMTWVRQAPGKGLEWVSSINWSGTHTDYADSVKGRFTISRDNAKNTLFLQMNSLTPEDTAVYYCNQGWKILPAERRGHGTQVTVSS | > 90%
38C6 (VHH, C-term myc-His6 tag) VHH: EVQLVESGGGLVQPGGSLRLSCVGSGFSLDDYAMTWVRQAPGKGLEWVSSINWSGTHTDYADSVKGRFTISRDNAKNTLFLQMNSLSPEDTAVYYCNQGWKIRPTIPMGHGTQVTVSS | > 90%
29H2 (VHH, C-term myc-His6 tag) VHH: EVQLVESGGGLVQPGGSLRLSCVASGFSLDDYGMTWVRQAPGKGLEWVSSINWSGTHTDYADSVKGRFTISRDNAKNTLFLQMNNLTPEDTAVYYCNQGWKIIPTDRRGHGTQVTVSS | > 90%
17B8 (VHH, C-term myc-His6 tag) VHH: EVQLVESGGGLVQPGGSLRLSCVASGFSLDDYGMTWVRQAPGKGLEWVSSINWSGTHTDYADSVKGRFTISRDNAKNTLFLQMNSLTPEDTAVYYCNQGWKILPAERRGHGTQVTVSS | > 90%
17A2 (VHH, C-term myc-His6 tag) VHH: EVQLVESGGGLVQPGGSLRLSCVASGFSLDDYAMTWVRQAPGKGLEWVSSINWSGTHTDYADSVKGRFTISRDNAKNTLFLQMNSLSPEDTAVYYCNKGWKVWPTDRGTHGTQVTVSS | > 90%
2E3 (VHH, C-term myc-His6 tag) VHH: EVQLVESGGGLVQPGGSLRLSCVASGFSLDDYGMTWVRQAPGKGLEWVSSINWSGTHTDYADSVKGRFTISRDNAKNTLFLQMNSLSPEDTAVYYCNQGWKILPTNRGSHGTQVTVSS | > 90%
13D2 (VHH, C-term myc-His6 tag) VHH: EVQLVESGGGLVQPGGSLRLSCVASGFSLDDYGMTWVRQAPGKGLEWVSSINWSGTHTDYADSVKGRFTISRDNAKNTLFLQMNNLRSEDTAVYSCNQGWKIVPTDRGGHGTQVTVSS | > 90%
17E4 (VHH, C-term myc-His6 tag) VHH: EVQLVESGGGLVQPGGSLRLSCVASGFSLDDYGMTWVRQAPGKGLEWVSSINWSGTHTDYADSVKGRFVISRDNAKNTLFLQMNSLSPEDTAVYYCNQGWKIIPTDRRGHGTQVTVSS | > 90%
17H4 (VHH, C-term myc-His6 tag) VHH: EVQLVESGGGLVQPGGSLRLSCVASGFSLINYAMTWVRQAPGKGLEWVSSINWSGTHTDYADSVKGRFTISRDNAKNTLFLHMNNLSPEDTAVYYCGQGWKIHPADRGGHGTQVTVSS | > 90%
15D1 (VHH, C-term myc-His6 tag) VHH: EVQLVESGGGLVQPGGSLRLSCVASGFSLDDYAMTWVRQAPGKGLEWVSSINWSGTHTDYADSVKGRFTISRDNAKNTLFLQMNSLNPEDTAVYYCNQGWKVWPTDRGTHGTQVTVSS | > 90%
15C11 (VHH, C-term myc-His6 tag) VHH: EVQLVESGGGLVQPGGSLRLSCVASGFSLDDYGMTWVRQAPGKGLEWVSSINWSGTHTDYADSVKGRFTISRDNAKNTLFLQMNSLTPEDTAVYYCNQGWKILPAERRGHGTPVTVSS | > 90%
13D11 (VHH, C-term myc-His6 tag) VHH: EVQLVESGGGLVHPGGSLRLSCVGSGFSLDDYGMTWVRRAPGKGLEWVSSINWSGTHTDYADSVKGRFTISRDNAKNTLFLQMNSLNPEDTAVYYCGQGWKIVPTNPRGHGTQVTVSS | > 90%
13B10 (VHH, C-term myc-His6 tag) VHH: EVQLVESGGGLVQPGGSLRLSCVASGFSLDDYGMTWVRQAPGKGFEWVSSINWSGTHTDYADSVKGRFTISRDNAKNTLFLQMNSLSPEDTAVYYCNQGWKILPTNRGSHGTQVTVSS | > 90%
17H3 (VHH, C-term myc-His6 tag) VHH: EVQLMESGGGLVQPGGSLRLSCVASGFSLDDYGMTWVRQAPGKGLEWVSSINWSGTHTDYADSVKGRFTISRDNAKNTLFLQMNSLRSEDTAVYYCNQGWKIVPTDRGGHGTQVTVSS | > 90%
17D2 (VHH, C-term myc-His6 tag) VHH: EVQLVESGGGLVQPGGSLRLSCVASGFSLDDYGMTWVRQAPGKGLEWVSSINWSGTHTDYADSVKGRFTISRDNAKNTLFLQMNSLRSEDTAVYYCNQGWKIVPTDRGSHGTQVTVSS | > 90%
15C5 (VHH, C-term myc-His6 tag) VHH: EVQLVESGGGLVQPGGSLKLSCVASGFSLDDYGMTWVRQAPGKGLEWVSSINWNVTHTDYAYSVKGRFTISRDNAKNTLFLQMNSLTPEDTAVYYCNQGWKIIPTDRRGHGTQVTVSS | > 90%
5G4 (VHH, C-term myc-His6 tag) VHH: EVQLVESGGGLVQPGGSLTLSCAGSGFIFDDYAMSWVRQAPGKGLEWVSSINWSGSHRNYADSVKGRFTISRDNAKKTLYLQMNSLKSEDTAVYYCATGWQSTTKNQNYWGQGTQVTVSS | > 90%
15B7 (VHH, C-term myc-His6 tag) VHH: EVQLVESGGGLVQPGGSLKLSCAASGFIFDDYAMSWVRQAPGKGLEWVSAINWSGSHRNYADSVKGRFTISRDNAKKTVYLQMNSLQSEDTAVYYCGTGWQSTTKSQGYWGQGTQVTVSS | > 90%
15G7 (VHH, C-term myc-His6 tag) VHH: EVQLVESGGGLVQPGGSLRLSCAASGFIFDDYAMSWVRQAPGKGLEWVSAINWSGTHRNYADSVKGRFTISRDNNKKTVYLQMNSLKSEDTAVYYCATGWQSTTKNQGYWGQGTQVTVSS | > 90%
2H4 (VHH, C-term myc-His6 tag) VHH: EVQLVESGGSLVQPGGSLRLSCAASGFTFDDYAMTWVRQAPGKGLEWVSSINWSGTHTDYTDSVKGRFTISRNNANNTLYLQMNSLKSEDTAVYYCAKNWGDAGTTWFEKSGSAGQGTQVTVSS | > 90%
30H9 (VHH, C-term myc-His6 tag) VHH: EVQLVESGGSLVQPGGSLRLSCAASGFTFDDYAMTWVRQAPGKGLEWVSSINWSGTHTDYTDSVKGRFTISRNNANNTLYLQMNSLKSEDTAVYYCAKNWGDAGTTWFEKSGSAGQGTQVTVSS | > 90%
2F3 (VHH, C-term myc-His6 tag) VHH: EVQLVESGGSLVQPGGSLRLSCAASGFTFDDYAMTWVRQAPGKGLEWVSSINWSGTHTDYTGSVKGRFTISRNNANNTLYLQMNSLKSDDTAVYYCAKNWGDAGTTWFEKSGSAGPGTQVTVSS | > 90%
2D4 (VHH, C-term myc-His6 tag) VHH: EVQLVESGGSLVQPGGSLRLSCAASGFTFDDYAMTWVRQAPGKGLEWVSSINWSGTHTDYADSVKGRFTISRNNANNTLYLQMNSLKSDDTAVYYCAKNWGDAGTTWFEKSGSAGPGTQVTVSS | > 90%

Each binder was assayed against T2, recombinant human ErbB2/Fc chimera (human, UniProt P04626 23-652) (assay: SPR (Biacore 3000), periplasmic extract over immobilised rhErbB2-Fc).
T2 construct: bought from R&D Systems; also called rhErbB2-Fc; rhErb2-Fc; Fc part of the bought chimera not given; not described

Binder | koff
2B4 (VHH, C-term myc-His6 tag) VHH: EVQLVESGGGLVQPGGSLRLSCVGSGFSLDDYAMTWVRQAPGKGLEWVSSINWSGTHTDYADSVKGRFTISRDNAKNTLFLQMNSLSPEDTAVYYCNQGWKIRPTIPMGHGTQVTVSS | 0.00277 s⁻¹
2C1 (VHH, C-term myc-His6 tag) VHH: EVQLVESGGGLVQPGGSLRLSCVASGFSLDDYGMTWVRQAPGKGLEWVSSINWSGTHTDYTDSVKGRFTISRDNAKNTLFLQMNSLTPEDTAVYYCNQGWKIIPTDRRGHGTQVTVSS | 0.00118 s⁻¹
2H4 (VHH, C-term myc-His6 tag) VHH: EVQLVESGGSLVQPGGSLRLSCAASGFTFDDYAMTWVRQAPGKGLEWVSSINWSGTHTDYTDSVKGRFTISRNNANNTLYLQMNSLKSEDTAVYYCAKNWGDAGTTWFEKSGSAGQGTQVTVSS | 0.00161 s⁻¹
2B1 (VHH, C-term myc-His6 tag) VHH: EVQLVESGGSLVQPGGSLRLSCAASGFTFDDYAMTWVRQAPGKGLEWVSSINWSGTHTDYTDSVKGRFTISRNNANNTLYLQMNSLKSDDTAVYYCAKNWGDAGTTWFEKSGSAGPGTQVTVSS | 0.00155 s⁻¹
2F3 (VHH, C-term myc-His6 tag) VHH: EVQLVESGGSLVQPGGSLRLSCAASGFTFDDYAMTWVRQAPGKGLEWVSSINWSGTHTDYTGSVKGRFTISRNNANNTLYLQMNSLKSDDTAVYYCAKNWGDAGTTWFEKSGSAGPGTQVTVSS | 0.00153 s⁻¹
2D4 (VHH, C-term myc-His6 tag) VHH: EVQLVESGGSLVQPGGSLRLSCAASGFTFDDYAMTWVRQAPGKGLEWVSSINWSGTHTDYADSVKGRFTISRNNANNTLYLQMNSLKSDDTAVYYCAKNWGDAGTTWFEKSGSAGPGTQVTVSS | 0.00165 s⁻¹
